The text below walks through data of article PMC7617805, “Mechanism of DNA capture by the MukBEF SMC complex and its inhibition by a viral DNA mimic” (Cell, 2025).

Series [1] concerns the molecule itself. Put plainly: cryo-EM structure; E. coli MukEF 1 uM with 4 uM gp5.9 in 20 mM Tris, 200 mM NaCl, 0.5 mM TCEP, 0.05 % β-octyl glucoside, pH 7.4; focused refinement on gp5.9/MukE.
Series [2] concerns the molecule itself. Put plainly: cryo-EM structure; wild-type P. thracensis MukBEF dimers 150 nM with nicked plasmid pFB526, 5 mM ATP, 10 mM MgCl2, optionally Na3VO4 or BeSO4/NaF; datasets pooled; open-gate and DNA capture states.

B1: T7 gp5.9 (untagged after cleavage, from insect cells) (natural protein, bacteriophage T7)
chain: MSRDLVTIPRDVWNDIQGYIDSLERENDSLKNQLMEADEYVAELEEKLNGTS
notes: gp5.9 of bacteriophage T7; Used as 'gp5.9 dimers' in SEC; source: Hi5 insect cells, purified (Talon, 3C cleavage, HisTrap flowthrough, MonoQ)
In the case of B1, in series [1], the “stoichiometry N” value stood at 2.

B2: P. thracensis MukB, wild type, as subunit of the MukBEF complex used for cryo-EM (natural protein, Photorhabdus thracensis, UniProt A0A0F7LRY2 1-1482, looked up)
chain: MIERGKFRSLTLVNWNGFFARTFDLDELVTTLSGGNGAGKSTTMAAFVTALIPDLTLLHFRNTTEAGATSGSRDKGLHGKLRAGVCYSTLDVINSRHQRVVVGVRLQQVAGRDRKVDIKPFMIQGLPTAIQPTQLLTENVGERQARVLPLNELKDRLDEMEGVQFKQFNSITDYHAQMFDLGVIPKRLRSASDRSKFYRLIEASLYGGISSAITRSLRDYLLPENSGVRKAFQDMEAALRENRITLEAIRVTQSDRDLFKHLITEATSYVSADYMRHANERRTHLDEALALRGELFGSHKQLATEQYRHVEMARELAEQSGASSDLETDHQAASDHLNLVQTAMRQQEKIDRYQVDLEELSYRLEEQTDVVEEAGELQAEYEARTEATEQEVDELKSQLADYQQALDVQQTRAIQYQQALQALERARELCRLPDLSVDNAEEWLETFQAKEQQATEALLALEQKLSVADAAHNQFEQAYQLVKNIVGETSRSEAWQSARELLRDWPSQRHLADRVQPLRMRLSELEQRLNNQQNAERLLSEFCKRQGRQYQAEDLEALQNELEARQEALSLSVNEGGERRMEMRQELEQLKQKIQSLTARAPVWLAAQDTLNQLCEQSGETLASSNDVTEYMQQLLEREREATVERDEVAAQKRELEKQIERLSQPSGAEDSRMIALAERFGGVLLSEIYDDITIDDAPYFSALYGPARHGIVVPDLSLVRPHLETLEDCPEDLYLIEGDPQSFDDSVFNAEEQTNAVLVKSSDRQWRYSRYPELPLFGRAARENRLEALNLERDALAERYATLSFDVQKIQRAHQAFSQFVGKHLSVAFDTDPEAEIRELRQRHTELEREVSRFEDQTQQQRQQYAQAKESLTTLNRLIPQVTLLLDETLIDRVEEVREEMDEAQEAARFLQQHGSALTKLEPMVAVLQSDPQQHEQLQQDYETAKHSQHQAKQQAFALVEIVQRRVHFSYSDSAGMLSENADLNDKLRQRLEHAESDRSRAREQLRQQQAQYSQFNQVLASLKSSYETKQDMLKELLQEMKDIGVQADANAEMRARERRDRLHEALSVNRSRVNQLEKQIAFCEAEMENVQKKLRKLERDYYQIREQVVSAKAGWCAVMRMVKDNGVERRLHRRELAYMEGGALRSMSDKALGALRLAVADNEHLRDALRLSEDPKRPERKVQFFIAVYQHLRERIRQDIIRTDDPVDAIEQMEIELARLTEELTAREQKLAISSKSVANIIRKTIQREQNRIRMLNQGLQAVSFGQVRGVRLNVNVRESHAILLDVLSEQQEQHQDLFNSQRLTFSEAMAKLYQRLNPQVDMGQRLPQTIGEELLDYRNYLELDVEVNRGSDGWLKAESGALSTGEAIGTGMSILVMVVQSWEEESRRLRGKDISPCRLLFLDEAARLDAKSIATLFELCERLQMQLIIAAPENISPEKGTTYKLVRKVFKNHEHVHVVGLRGFGQDAPATQLISDVTA
notes: MukB of Photorhabdus thracensis; the MukB chain of m14; also called κ-MukB; ν-MukB; source: E. coli BL21-Gold(DE3), polycistronic pFB403, purified as the MukBEF complex; not shown: His6-SUMO, N-terminal, cleaved
For the protein B2, the binding result in series [2] is recorded as “binds”.
